Measured values reported in PMC9646744, “Structural dynamics of AAA + ATPase Drg1 and mechanism of benzo-diazaborine inhibition” (Nature Communications, 2022).

B1: Drg1 (wild type, S. cerevisiae) (enzyme, UniProt P32794 1-780, looked up)
chain: MAPKSSSSGSKKKSSASSNSADAKASKFKLPAEFITRPHPSKDHGKETCTAYIHPNVLSSLEINPGSFCTVGKIGENGILVIARAGDEEVHPVNVITLSTTIRSVGNLILGDRLELKKAQVQPPYATKVTVGSLQGYNILECMEEKVIQKLLDDSGVIMPGMIFQNLKTKAGDESIDVVITDASDDSLPDVSQLDLNMDDMYGGLDNLFYLSPPFIFRKGSTHITFSKETQANRKYNLPEPLSYAAVGGLDKEIESLKSAIEIPLHQPTLFSSFGVSPPRGILLHGPPGTGKTMLLRVVANTSNAHVLTINGPSIVSKYLGETEAALRDIFNEARKYQPSIIFIDEIDSIAPNRANDDSGEVESRVVATLLTLMDGMGAAGKVVVIAATNRPNSVDPALRRPGRFDQEVEIGIPDVDARFDILTKQFSRMSSDRHVLDSEAIKYIASKTHGYVGADLTALCRESVMKTIQRGLGTDANIDKFSLKVTLKDVESAMVDIRPSAMREIFLEMPKVYWSDIGGQEELKTKMKEMIQLPLEASETFARLGISAPKGVLLYGPPGCSKTLTAKALATESGINFLAVKGPEIFNKYVGESERAIREIFRKARSAAPSIIFFDEIDALSPDRDGSSTSAANHVLTSLLNEIDGVEELKGVVIVAATNRPDEIDAALLRPGRLDRHIYVGPPDVNARLEILKKCTKKFNTEESGVDLHELADRTEGYSGAEVVLLCQEAGLAAIMEDLDVAKVELRHFEKAFKGIARGITPEMLSYYEEFALRSGSSS
notes: Drg1, type II AAA+ ATPase encoded by AFG2, S. cerevisiae (genome of strain BY4741), full length; Hexamers assembled in vitro with ADP, AMPPNP, ADP/AMPPNP/benzo-diazaborine or ATP/benzo-diazaborine; stabilised by GraFix (glutaraldehyde) for cryo-EM; also called Drg1^WT; Drg1 hexamer; source: E. coli Transetta (DE3), purified (Ni-NTA, TEV cleavage, Mono Q, size-exclusion chromatography); not shown: …
B2: Drg1 E346Q/E617Q double mutant (Walker B motifs of D1 and D2) (enzyme, S. cerevisiae, UniProt P32794 1-780, looked up)
chain: MAPKSSSSGSKKKSSASSNSADAKASKFKLPAEFITRPHPSKDHGKETCTAYIHPNVLSSLEINPGSFCTVGKIGENGILVIARAGDEEVHPVNVITLSTTIRSVGNLILGDRLELKKAQVQPPYATKVTVGSLQGYNILECMEEKVIQKLLDDSGVIMPGMIFQNLKTKAGDESIDVVITDASDDSLPDVSQLDLNMDDMYGGLDNLFYLSPPFIFRKGSTHITFSKETQANRKYNLPEPLSYAAVGGLDKEIESLKSAIEIPLHQPTLFSSFGVSPPRGILLHGPPGTGKTMLLRVVANTSNAHVLTINGPSIVSKYLGETEAALRDIFNEARKYQPSIIFIDQIDSIAPNRANDDSGEVESRVVATLLTLMDGMGAAGKVVVIAATNRPNSVDPALRRPGRFDQEVEIGIPDVDARFDILTKQFSRMSSDRHVLDSEAIKYIASKTHGYVGADLTALCRESVMKTIQRGLGTDANIDKFSLKVTLKDVESAMVDIRPSAMREIFLEMPKVYWSDIGGQEELKTKMKEMIQLPLEASETFARLGISAPKGVLLYGPPGCSKTLTAKALATESGINFLAVKGPEIFNKYVGESERAIREIFRKARSAAPSIIFFDQIDALSPDRDGSSTSAANHVLTSLLNEIDGVEELKGVVIVAATNRPDEIDAALLRPGRLDRHIYVGPPDVNARLEILKKCTKKFNTEESGVDLHELADRTEGYSGAEVVLLCQEAGLAAIMEDLDVAKVELRHFEKAFKGIARGITPEMLSYYEEFALRSGSSS
notes: Drg1, type II AAA+ ATPase encoded by AFG2, S. cerevisiae, full length, with the Walker B mutations E346Q and E617Q; Incubated with 5 mM ATP before size-exclusion chromatography; the atomic model covers residues 29 to 777; also called mutant Drg1; double mutant Drg1; source: E. coli Transetta (DE3), purified (Ni-NTA, TEV cleavage, Mono Q, size-exclusion chromatography); not shown: His6, …

Assays:
[1] = molecular target: the molecule itself; experiment: negative-staining electron microscopy; Drg1 hexamers assembled in vitro with ADP, AMPPNP, ADP/AMPPNP/benzo-diazaborine or ATP/benzo-diazaborine; 0.02 mg/mL, 2% uranyl acetate, carbon-coated copper grids
[2] = molecular target: the molecule itself; experiment: cryo-EM structure; Drg1 E346Q/E617Q with ATP; GraFix (glycerol gradient with 0-0.05% glutaraldehyde); 50 mM HEPES-KOH pH 6.8, 150 mM KCl, 5 mM MgCl2, 1 mM DTT, 1 mM nucleotide; protomer with protomer in the hexamer

| Protein | stoichiometry N [1] | stoichiometry N [2] |
| --- | --- | --- |
| B1 | 6 | – |
| B2 | – | 6 |
